In patent US20060198852A1:
Like-named read-outs stand apart in the source and are kept apart here.

Experiments:
[1] = molecular target: bovine type I collagen (bovine) (UniProt P02453); assay: SPR, BIAcore 3000, collagen immobilized on CM5 chip
[2] = molecular target: bovine type I collagen (bovine) (UniProt P02453)
[3] = molecular target: bovine type I collagen (bovine) (UniProt P02453); assay: SPR, from the kinetic rates ka and kd; SPR, from ka and kd
[4] = molecular target: bovine type I collagen (bovine) (UniProt P02453); assay: SPR, Scatchard analysis of equilibrium responses; SPR, Scatchard analysis
[5] = molecular target: bovine type I collagen (bovine) (UniProt P02453); assay: SPR, equilibrium responses, one-site-binding nonlinear regression
[6] = molecular target: bovine type I collagen (bovine) (UniProt P02453); remark: listed apart in the source

UniProt P02453, sequence (P02453 162-1217 limits assumed, chain 1 of 2): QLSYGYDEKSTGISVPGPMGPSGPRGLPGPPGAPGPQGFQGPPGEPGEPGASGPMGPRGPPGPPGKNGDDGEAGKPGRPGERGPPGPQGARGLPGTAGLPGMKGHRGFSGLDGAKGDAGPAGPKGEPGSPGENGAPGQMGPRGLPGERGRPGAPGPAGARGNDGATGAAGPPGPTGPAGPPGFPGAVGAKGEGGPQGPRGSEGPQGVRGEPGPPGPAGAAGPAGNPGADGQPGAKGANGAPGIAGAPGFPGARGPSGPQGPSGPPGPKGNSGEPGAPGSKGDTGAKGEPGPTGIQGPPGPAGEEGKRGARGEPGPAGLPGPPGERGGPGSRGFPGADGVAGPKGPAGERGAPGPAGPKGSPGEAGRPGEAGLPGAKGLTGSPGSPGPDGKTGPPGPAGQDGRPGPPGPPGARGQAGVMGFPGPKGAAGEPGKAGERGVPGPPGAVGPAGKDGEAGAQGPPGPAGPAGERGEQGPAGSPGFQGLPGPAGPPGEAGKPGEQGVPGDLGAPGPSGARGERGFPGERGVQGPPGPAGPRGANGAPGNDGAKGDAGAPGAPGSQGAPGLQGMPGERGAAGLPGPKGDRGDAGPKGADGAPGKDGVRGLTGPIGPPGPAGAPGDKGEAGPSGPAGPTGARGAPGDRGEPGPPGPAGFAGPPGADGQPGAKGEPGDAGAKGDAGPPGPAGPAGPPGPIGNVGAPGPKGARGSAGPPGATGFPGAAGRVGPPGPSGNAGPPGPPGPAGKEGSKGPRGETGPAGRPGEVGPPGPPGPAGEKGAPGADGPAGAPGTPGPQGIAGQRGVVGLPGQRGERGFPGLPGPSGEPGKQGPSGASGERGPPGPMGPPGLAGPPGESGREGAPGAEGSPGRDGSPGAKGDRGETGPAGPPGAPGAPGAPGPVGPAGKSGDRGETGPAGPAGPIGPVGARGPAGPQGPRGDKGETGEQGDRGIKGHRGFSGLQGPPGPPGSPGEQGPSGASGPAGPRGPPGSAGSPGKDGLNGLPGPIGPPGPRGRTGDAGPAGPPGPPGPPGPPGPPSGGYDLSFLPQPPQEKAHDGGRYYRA
UniProt P02453, sequence (P02465 80-1117 limits assumed, chain 2 of 2, further chain): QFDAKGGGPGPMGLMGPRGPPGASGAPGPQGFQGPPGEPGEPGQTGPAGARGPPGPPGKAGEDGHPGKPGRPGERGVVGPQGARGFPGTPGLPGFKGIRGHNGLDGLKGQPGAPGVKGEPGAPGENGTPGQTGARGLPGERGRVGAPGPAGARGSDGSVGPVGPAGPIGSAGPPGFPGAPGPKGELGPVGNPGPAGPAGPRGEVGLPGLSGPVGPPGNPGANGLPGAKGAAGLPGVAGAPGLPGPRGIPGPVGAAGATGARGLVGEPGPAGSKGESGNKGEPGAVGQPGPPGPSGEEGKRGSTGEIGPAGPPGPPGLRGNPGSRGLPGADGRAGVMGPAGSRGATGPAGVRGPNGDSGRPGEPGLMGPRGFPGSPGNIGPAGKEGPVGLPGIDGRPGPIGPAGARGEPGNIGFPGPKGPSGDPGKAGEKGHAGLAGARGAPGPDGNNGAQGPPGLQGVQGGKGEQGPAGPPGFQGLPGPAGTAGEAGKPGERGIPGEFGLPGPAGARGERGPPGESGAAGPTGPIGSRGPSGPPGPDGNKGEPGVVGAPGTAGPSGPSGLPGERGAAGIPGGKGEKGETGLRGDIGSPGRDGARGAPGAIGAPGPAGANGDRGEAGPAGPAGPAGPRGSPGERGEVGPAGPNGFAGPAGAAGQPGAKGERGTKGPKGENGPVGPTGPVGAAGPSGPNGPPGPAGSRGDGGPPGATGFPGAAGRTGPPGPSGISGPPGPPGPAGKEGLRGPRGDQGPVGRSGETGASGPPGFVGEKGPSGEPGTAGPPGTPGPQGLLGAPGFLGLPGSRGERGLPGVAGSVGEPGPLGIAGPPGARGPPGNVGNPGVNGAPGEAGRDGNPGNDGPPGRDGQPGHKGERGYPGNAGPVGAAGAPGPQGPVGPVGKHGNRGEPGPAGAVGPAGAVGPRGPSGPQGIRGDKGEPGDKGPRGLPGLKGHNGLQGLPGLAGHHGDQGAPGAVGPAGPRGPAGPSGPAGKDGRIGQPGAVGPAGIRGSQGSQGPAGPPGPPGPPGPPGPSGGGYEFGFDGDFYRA

Row | Substance | koff [1] [s⁻¹] | kon [1] [M⁻¹ s⁻¹] | Kd [2] [µM] | Kd [3] [µM] | Kd [4] [µM] | Kd [5] [µM] | Kd [6] [µM]
1 | rBA0871A, recombinant His-tag fusion protein of the A region (amino acid residues 42-765) of BA0871 | 0.0043 | 2800 | 0.19 | 1.6 | 2.4 | 3.2 | 
2 | rBA5258A, recombinant His-tag fusion protein of the A region (amino acid residues 32-366) of BA5258 |  |  | 0.03 |  |  | 0.9 | 0.6
